# Reference: PMC12738692, “Identification, characterization, and structure-activity relationship of the ASIC3-selective peptide WRPRFa” (Communications Chemistry, 2025)
# Substitutions are numbered along the chain they refer to. Values joined by “and” are separate entries in the source; they are usually repeats but may differ in a detail not shown here. Equal values may be shown once. Read-outs that look alike come from different tables or passages of the source. Where a SMILES comes first, the peptide text is derived from it. Where no end group is shown, it is not given here. [ ]: non-standard residue; d: D form. The star is where a group is joined. Arg(Me2a) = CN(C)C(=N)NCCC[C@H](N)C(=O)O; Cha = N[C@@H](CC1CCCCC1)C(=O)O; pNA = O=[N+]([O-])c1ccc(N*)cc1
# T1: human ASIC3 (acid-sensing ion channel 3) (human) (UniProt Q9UHC3)
# T1 sequence: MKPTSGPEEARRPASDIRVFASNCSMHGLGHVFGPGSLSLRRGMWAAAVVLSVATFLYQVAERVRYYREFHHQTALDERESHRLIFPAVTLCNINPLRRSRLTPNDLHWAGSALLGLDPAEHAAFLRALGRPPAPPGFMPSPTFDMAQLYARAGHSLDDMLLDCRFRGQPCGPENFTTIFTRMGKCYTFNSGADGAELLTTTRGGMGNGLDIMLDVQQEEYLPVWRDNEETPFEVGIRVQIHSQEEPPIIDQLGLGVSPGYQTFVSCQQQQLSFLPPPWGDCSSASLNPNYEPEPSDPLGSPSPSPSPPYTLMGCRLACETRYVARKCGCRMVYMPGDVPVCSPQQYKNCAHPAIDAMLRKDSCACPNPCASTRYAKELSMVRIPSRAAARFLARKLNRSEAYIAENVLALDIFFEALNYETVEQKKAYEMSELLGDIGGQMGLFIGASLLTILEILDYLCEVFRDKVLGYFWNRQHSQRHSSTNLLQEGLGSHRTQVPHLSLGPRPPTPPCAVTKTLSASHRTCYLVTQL
# T2: human ASIC3 (Homo sapiens, UniProt Q9UHC3)
# T2 construct: CHO cells stably expressing human ASIC3 (NM_004769.1)
# T2 sequence (Q9UHC3 1-531): T1 sequence
# T3: ASIC3 E78Q (Homo sapiens, UniProt Q9UHC3, E78Q)
# T3 construct: human ASIC3 (NM_004769.4); P2A-mCherry reporter (C, cleaved yes); expressed in transfected cells; host or cells: CHO cells (85050302, Sigma), transient transfection
# T3 sequence (Q9UHC3 1-531 E78Q): T1 sequence with E78Q
# T4: ASIC3 E378Q (Homo sapiens, UniProt Q9UHC3, E378Q)
# T4 construct: human ASIC3 (NM_004769.4); P2A-mCherry reporter (C, cleaved yes); expressed in transfected cells; host or cells: CHO cells (85050302, Sigma), transient transfection
# T4 sequence (Q9UHC3 1-531 E378Q): T1 sequence with E378Q
# T5: ASIC3 E416Q (Homo sapiens, UniProt Q9UHC3, E416Q)
# T5 construct: human ASIC3 (NM_004769.4); P2A-mCherry reporter (C, cleaved yes); expressed in transfected cells; host or cells: CHO cells (85050302, Sigma), transient transfection
# T5 sequence (Q9UHC3 1-531 E416Q): T1 sequence with E416Q
# Assays:
# [1] = molecular target: T1, human ASIC3 (acid-sensing ion channel 3) (human)
# human ASIC3 [2] = molecular target: T2, human ASIC3; assay type: cell-based; conditions: for Geometric mean (I3s/Ipk) / Mean (I3s/Ipk), arithmetic: QPatch II; for Mean (I3s/Ipk), arithmetic: CHO cells
# human ASIC3 [3] = molecular target: T2, human ASIC3; test: QPatch II peptide concentration-response (I3s/Ipk); assay type: cell-based; conditions: WT ASIC3, QPatch II, read-out: EC50 (95% CI)
# Experimental: RFamide peptide activity on ASIC3 was measured on the QPatch II platform (Sophion, Ballerup, Denmark) using either a CHO or HEK stable cell line and analyzed with Sophion Analyzer software (version 5.2). Prior to recording, the cells were washed twice in PBS (Gibco, Paisley, UK) and treated with Detachin (Genlantis, San Diego) for 3 min, then resuspended in their respective growth media without serum for a concentration of 2 × 10^6 cells/ml. A minimum of 5 mL of cells was added to the QStirrer, which was placed on the deck of the QPatch II and allowed to incubate at room temperature for a minimum of 20 min.
# The bath solution contained 135 mM NaCl, 5 mM KCl, 4.8 mM CaCl2, 1 mM MgCl2, 10 mM HEPES, 10 mM MES, and 10 mM glucose adjusted to pH 7.4 with NaOH. The intracellular solution contained 65 mM CsF, 65 mM CsCl, 10 mM HEPES, 5 mM EGTA, 1 mM MgCl2, adjusted to pH 7.4 with CsOH. Cells were held at -60 mV and ASIC currents were evoked with 3 s applications of pH 6.3 buffer. Peptides were preincubated for at least 2 min. The extracellular solution was changed by dispensing 5 µL of buffer through the ~1.7 µL recording chamber, with a solution switch time of 100 ms, that exchanges 99% of the solution. Signals were acquired at 1 kHz and low-pass filtered at 300 Hz. Experiments performed on QPatch II are specifically indicated in the text.
# human ASIC3 E78Q (human) = human ASIC3 E78Q (human) (UniProt Q9UHC3)
# [4] = molecular target: T1, human ASIC3 (acid-sensing ion channel 3) (human); remark: listed apart in the source
# ASIC3 E78Q = molecular target: T3, ASIC3 E78Q; test: MPC peptide activity on ASIC3 E78Q mutant (I3s/Ipk, peak current, double mutant cycle); assay type: cell-based; conditions: read-out: EC50 (95% CI)
# Excerpt: We then asked which of the two WRPRFa arginines interacts with the E78/E421 pair. […] To this end, we used a double mutant cycle approach to identify coupling between site 2 or site 4 of WRPRFa with the E78/E421 pair. In this case, the double mutant cycle experiment compared the change in potency caused by single mutations in either WRPRFa or ASIC3 against the change in potency caused by simultaneous mutations in WRPRFa and ASIC3. A coupling coefficient (Ω) can be calculated by dividing the product of the WT/WRPRFa potency and double mutant potency by the product of the two single mutant potencies.
# For peptide concentration-response curves, Bottom was set to 0 and Top was constrained to ≤ 1 for peptides that approached plateau phase or where I3s/Ipk reached 1. […] For activation- or desensitization-pH curves, Bottom was set to 0 and Top constrained to 1.
# human ASIC3 [5] = molecular target: T2, human ASIC3; test: cell-based
# ASIC3 E378Q = molecular target: T4, ASIC3 E378Q; test: MPC peptide activity on ASIC3 E378Q mutant; assay type: cell-based; conditions: read-out: EC50 (95% CI)
# Experimental: (§1) We individually mutated the four glutamates to glutamine to remove their charge but maintain the side chain structure (Fig. 4C). We tested each mutant by incubating HEK cells stably expressing ASIC3 or CHO cells transfected with mutant ASIC3 with 30 µM WRPRFa before a pH 6.3 acid stimulus.
# (§2) All mutagenesis was performed at Genscript, and sequences were verified by nanopore sequencing by Plasmidsaurus (Eugene, OR). The numbering of ASIC3 amino acids is based on RefSeq NP_004760.1. Plasmids were transfected into CHO cells using Lipofectamine 3000 (Thermo) according to the manufacturer’s protocol. Cells were used for patch-clamp recordings 24–48 h after transfection.
# (§3) CHO and HEK cells were tested in the whole-cell configuration on MPC platforms using an Axopatch 200B amplifier (Axon Instruments, San Jose, CA) and a Digidata 1322A or Digidata 1440A digitizer (Axon) using pClamp 9.2 or 10.7 (Molecular Devices, San Jose, CA), respectively. When testing transfected cells, red fluorescence from the cleaved mCherry reporter was used to identify cells expressing ASIC3, ASIC131, or ASIC313. For cells expressing transfected ASIC1a or ASIC2a, the green signal from the cleaved eGFP reporter was used. All electrophysiology data were analyzed with Clampfit 11.1 (Molecular Devices).
# ASIC3 E416Q = molecular target: T5, ASIC3 E416Q; test: MPC peptide activity on ASIC3 E416Q mutant (incl. double mutant cycle); assay type: cell-based; conditions: read-out: EC50 (95% CI)
# Experimental: as §1, §2, §3
# [6] = molecular target: T1, human ASIC3 (acid-sensing ion channel 3) (human); remark: listed apart in the source
molecule,measurement,setting,value
WRPR{Cha}a (peptide),"EC50 of I3s/Ipk, QPatch II",[1],2.33 µM
WRPRF-COOH: WRPRFa without C-terminal amidation (WRPRF-OH),Geometric mean (I3s/Ipk),human ASIC3 [2]; 3 µM peptide,0.0303
same,Geometric mean (I3s/Ipk),"human ASIC3 [2]; 30 µM peptide, pH 6.3",0.249
VRPRFa: site 5 Val (VRPRF-NH2),Geometric mean (I3s/Ipk),human ASIC3 [2]; 3 µM peptide,0.0213
same,Geometric mean (I3s/Ipk),"human ASIC3 [2]; 30 µM peptide, pH 6.3",0.157
WKPRF-NH2 [WKPRFa],EC50,human ASIC3 [3],9.08 µM
RPRF-p-nitroanilide: RPRFa with C-terminal amide replaced by para-nitroanilide (RPRF-pNA),"I3s/Ipk, SAR - RPRFa - 30 uM",human ASIC3 [2],0.4296 and 0.3944 and 0.359 and 0.3858 and 0.3642
same,"Mean (I3s/Ipk), arithmetic",human ASIC3 [2]; 30 µM peptide,0.387
same,"Mean (I3s/Ipk), arithmetic","human ASIC3 [2]; 30 µM peptide, listed as RPRF-p-na",0.387 ± 0.028
FRPRF-NH2 [FRPRFa],EC50,human ASIC3 [3],7.84 µM
WRP{ADMA}Fa (peptide),"EC50 of I3s/Ipk, escalating peptide before pH 6.3, manual patch clamp",human ASIC3 E78Q (human),4.93 µM
same,"EC50 of I3s/Ipk, escalating peptide before pH 6.3, manual patch clamp",[4],21.3 µM
CN(C)C(=N)NCCC[C@H](NC(=O)[C@@H]1CCCN1C(=O)[C@H](CCCNC(=N)N)NC(=O)[C@@H](N)Cc1c[nH]c2ccccc12)C(=O)N[C@@H](Cc1ccccc1)C(N)=O [WRP{ADMA}Fa] (H-WRP[Arg(Me2a)]F-NH2),EC50,ASIC3 E78Q,4.93 µM
same,EC50,human ASIC3 [5],21.3 µM
N=C(N)NCCC[C@H](NC(=O)[C@@H]1CCCN1C(=O)[C@@H](N)CCCNC(=N)N)C(=O)N[C@@H](Cc1ccccc1)C(N)=O [RPRFa] (H-RPRF-NH2),EC50,human ASIC3 [5],≥ 21.3 µM
N=C(N)NCCC[C@H](NC(=O)[C@@H]1CCCN1C(=O)[C@H](CCCNC(=N)N)NC(=O)[C@@H](N)Cc1c[nH]c2ccccc12)C(=O)N[C@@H](CC1CCCCC1)C(N)=O [WRPR{Cha}a] (H-WRPR[Cha]-NH2),EC50,human ASIC3 [3],2.33 µM
RPRF-COOH: RPRFa without C-terminal amidation (RPRF-OH),"Mean (I3s/Ipk), arithmetic",human ASIC3 [2]; 3 µM peptide,0.00354
same,"Mean (I3s/Ipk), arithmetic",human ASIC3 [2]; 30 µM peptide,0.00339 ± 0.00259 and 0.00339
WIPRF-NH2 [WIPRFa],EC50,ASIC3 E378Q,20.8 µM
same,EC50,ASIC3 E78Q,1.66 µM
same,EC50,human ASIC3 [3],≥ 24 µM
same,EC50,ASIC3 E416Q,10.3 µM
RPRF-NH2 [RPRFa],"EC50 of I3s/Ipk, RPRFa before a pH 6.3 stimulus, manual patch clamp, HEK cells",[6],> 21.3 µM
